The term EC50 denotes the concentration giving half of the maximal effect. One may read the Kd as a measure of binding affinity in units of concentration. The koff is the rate constant with which the complex falls apart. The kon is the rate constant with which the complex forms. What is called IC50 is the point on the concentration scale where inhibition reaches its midpoint.

Experiment [1] deals with T1, endogenous human FcRn in cells (human, UniProt P55899 24-365). In words: cell-based or functional assay.
For experiment [2], the target named is T1, endogenous human FcRn in cells. In words: flow cytometry on fixed and permeabilised THP-1 cells (endogenous human FcRn), pH 7.4. For orientation: Flow cytometry measures light scatter and fluorescence of single cells or particles in a stream.
The target of experiment [3] is T2, recombinant human FcRn (rhFcRn) (human, UniProt P55899 24-297; P16213 21-119). In words: SPR method of Example 2; differs from the 19.4 pM of Table 3. On the technique in general: SPR reads the build-up and loss of mass on a sensor chip optically.
The target in experiment [4] is T2, recombinant human FcRn (rhFcRn). In words: SPR (ProteOn XPR 36), mAb captured on anti-human Fc, rhFcRn as analyte, pH 7.4, 298K.
Experiment [5] addresses T1, endogenous human FcRn in cells. In words: FcRn occupancy in HVTs: unlabeled N027 for 1 hour at 37 C, free FcRn stained with VivoTag645-N027, flow cytometry.
Experiment [6] shares this target. In words: FcRn occupancy in HUVECs: unlabeled N027 for 1 hour at 37 C, free FcRn stained with VivoTag645-N027, flow cytometry.
The target is the same in experiment [7]. In words: FcRn occupancy in HAECs: unlabeled N027 for 1 hour at 37 C, free FcRn stained with VivoTag645-N027, flow cytometry.
For experiment [8], the target named is T3, cynomolgus monkey FcRn extracellular domain, GPI-linked, on the surface of HEK 293 cells (cynomolgus monkey, UniProt Q8SPV9 24-297; Q8SPW0 21-119, C-terminal engineered GPI linkage).
T3 construct: extracellular domain; b2m is not mentioned for these cells
In words: competition flow cytometry on HEK 293 cells with cell-surface GPI-linked cynomolgus monkey FcRn at pH 6.0; inhibition of the binding of 66 nM fluorescent probe-labeled non-specific IgG; readout cell bound IgG (MFI).

B1: N027 (antibody, human IgG1, lambda, N297A)
heavy: not shown
light: QSALTQPASVSGSPGQSITISCTGTGSDVGSYNLVSWYQQHPGKAPKLMIYGDSERPSGVSNRFSGSKSGNTASLTISGLQAEDEADYYCSSYAGSGIYVFGTGTKVTVLGQPKAAPSVTLFPPSSEELQANKATLVCLISDFYPGAVTVAWKADSSPVKAGVETTTPSKQSNNKYAASSYLSLTPEQWKSHKSYSCQVTHEGSTVEKTVAPTECS
notes: IgG1, lambda light chain; Fluorophore-labelled forms served as detection reagent in the occupancy assays; also called anti-FcRn antibody N027; VivoTag645-labeled N027
Regarding B1, in experiment [1], the “intracellular IgG accumulation (VivoTag645-IgG, flow cytometry), ~IC50, HAECs” value is approximately 0.12 µg/mL; the “intracellular IgG accumulation (VivoTag645-IgG, flow cytometry), ~IC50, HUVECs” value is approximately 0.15 µg/mL; the “intracellular IgG accumulation (VivoTag645-IgG, flow cytometry), ~IC50, HVTs” value was approximately 0.07 µg/mL. In addition, the EC50 in experiment [2] was determined as 3 nM. The dissociation constant (Kd) in experiment [3] was 0.0193 nM. In experiment [4], the Kd was determined as 0.0194 nM, the koff was determined as 2.31e-05 s⁻¹ and the kon amounted to 1.19e+06 M⁻¹ s⁻¹. This molecule showed an IC50 in experiment [5] of 0.15 µg/mL. Further, the midpoint of inhibition in experiment [6], the IC50, lay at 0.15 µg/mL. The molecule also came in with an IC50 in experiment [7] of 0.23 µg/mL. Moreover, in experiment [8], the EC50 came out at 4.46 nM.

B2: N026 (antibody, human IgG1, lambda, N297A)
heavy: not shown
light: QSALTQPASVSGSPGQSITISCTGTGSDVGSYNLVSWYQQHPGKAPKLMIYGDSERPSGVSNRFSGSKSGNTASLTISGLQAEDEADYYCSSYAGSGIYVFGTGTKVTVLGQPKAAPSVTLFPPSSEELQANKATLVCLISDFYPGAVTVAWKADSSPVKAGVETTTPSKQSNNKYAASSYLSLTPEQWKSHKSYSCQVTHEGSTVEKTVAPTECS
notes: IgG1, lambda light chain; also called anti-FcRn antibody N026
On to B2, for which, in experiment [4], the equilibrium dissociation constant (Kd) is 0.0365 nM, the koff was 4.44e-05 s⁻¹ and the kon was found to be 1.22e+06 M⁻¹ s⁻¹. Moreover, the EC50 in experiment [8] was 2.68 nM.

B3: N023 (antibody, human IgG1, lambda, N297A)
heavy: not shown
light: QSALTQPASVSGSPGQSITISCTGTGSDVGSYNLVSWYQQHPGKAPKLMIYGDSERPSGVSNRFSGSKSGNTASLTISGLQAEDEADYYCSSYAGSGIYVFGTGTKVTVLGQPKAAPSVTLFPPSSEELQANKATLVCLISDFYPGAVTVAWKADSSPVKAGVETTTPSKQSNNKYAASSYLSLTPEQWKSHKSYSCQVTHEGSTVEKTVAPTECS
notes: also called anti-FcRn antibody N023
As to B3, in experiment [4], the Kd was 0.0314 nM, the koff worked out at 2.91e-05 s⁻¹ and the kon worked out at 927000 M⁻¹ s⁻¹. The molecule further registered an EC50 in experiment [8] of 5.16 nM.

B4: N024 (antibody, human IgG1, lambda, N297A)
heavy: not shown
light: QSALTQPASVSGSPGQSITISCTGTGSDVGSYNLVSWYQQHPGKAPKLMIYGDSERPSGVSNRFSGSKSGNTASLTISGLQAEDEADYYCSSYAGSGIYVFGTGTKVTVLGQPKAAPSVTLFPPSSEELQANKATLVCLISDFYPGAVTVAWKADSSPVKAGVETTTPSKQSNNKYAASSYLSLTPEQWKSHKSYSCQVTHEGSTVEKTVAPTECS
notes: IgG1, lambda light chain; also called anti-FcRn antibody N024
B4: in experiment [4], the Kd is 0.0355 nM, the koff was found to be 4.03e-05 s⁻¹ and the kon turned out to be 1.13e+06 M⁻¹ s⁻¹. Besides, the EC50 in experiment [8] was determined as 3.51 nM.

B5: N022 (antibody, human IgG1, lambda, N297A)
heavy: not shown
light: QSALTQPASVSGSPGQSITISCTGTGSDVGSYNLVSWYQQHPGKAPKLMIYGDSERPSGVSNRFSGSKSGNTASLTISGLQAEDEADYYCSSYAGSGIYVFGTGTKVTVLGQPKAAPSVTLFPPSSEELQANKATLVCLISDFYPGAVTVAWKADSSPVKAGVETTTPSKQSNNKYAASSYLSLTPEQWKSHKSYSCQVTHEGSTVEKTVAPTECS
notes: also called anti-FcRn antibody N022
With B5, in experiment [4], the Kd is 0.031 nM, the koff is 4.42e-05 s⁻¹ and the kon was determined as 1.42e+06 M⁻¹ s⁻¹. The molecule also returned a half-maximal effective concentration (EC50) in experiment [8] of 4.8 nM.

The values are drawn from US20260258123A1 (MOMENTA PHARMACEUTICALS, published 2026).
